Reference: patent EP4289863A9

What was measured:
[1] = target: T1, human IL-36R (human) (UniProt Q9HB29); test: cell-based or functional assay
T1 sequence (looked up): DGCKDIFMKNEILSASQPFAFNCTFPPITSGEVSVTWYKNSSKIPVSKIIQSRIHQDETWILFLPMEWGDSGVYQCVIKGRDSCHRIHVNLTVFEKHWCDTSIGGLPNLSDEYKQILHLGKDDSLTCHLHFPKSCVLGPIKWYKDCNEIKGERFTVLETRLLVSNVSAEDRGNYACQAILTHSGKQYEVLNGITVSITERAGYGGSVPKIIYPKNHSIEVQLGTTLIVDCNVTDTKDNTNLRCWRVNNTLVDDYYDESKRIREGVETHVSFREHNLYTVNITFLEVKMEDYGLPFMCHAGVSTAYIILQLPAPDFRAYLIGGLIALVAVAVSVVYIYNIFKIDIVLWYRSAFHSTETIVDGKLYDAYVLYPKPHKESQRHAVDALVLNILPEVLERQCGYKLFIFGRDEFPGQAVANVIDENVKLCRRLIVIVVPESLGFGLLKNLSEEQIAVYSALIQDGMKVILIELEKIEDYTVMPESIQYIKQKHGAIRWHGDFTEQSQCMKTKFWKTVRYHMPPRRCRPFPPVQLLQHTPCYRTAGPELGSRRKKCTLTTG

[2] = target: T1, human IL-36R (human); test: flow cytometry on cells, hybridoma supernatant
[3] = target: human IL1R1 (human) (UniProt P14778); test: flow cytometry on cells, hybridoma supernatant
human IL1R1 (human), sequence (P14778 18-569): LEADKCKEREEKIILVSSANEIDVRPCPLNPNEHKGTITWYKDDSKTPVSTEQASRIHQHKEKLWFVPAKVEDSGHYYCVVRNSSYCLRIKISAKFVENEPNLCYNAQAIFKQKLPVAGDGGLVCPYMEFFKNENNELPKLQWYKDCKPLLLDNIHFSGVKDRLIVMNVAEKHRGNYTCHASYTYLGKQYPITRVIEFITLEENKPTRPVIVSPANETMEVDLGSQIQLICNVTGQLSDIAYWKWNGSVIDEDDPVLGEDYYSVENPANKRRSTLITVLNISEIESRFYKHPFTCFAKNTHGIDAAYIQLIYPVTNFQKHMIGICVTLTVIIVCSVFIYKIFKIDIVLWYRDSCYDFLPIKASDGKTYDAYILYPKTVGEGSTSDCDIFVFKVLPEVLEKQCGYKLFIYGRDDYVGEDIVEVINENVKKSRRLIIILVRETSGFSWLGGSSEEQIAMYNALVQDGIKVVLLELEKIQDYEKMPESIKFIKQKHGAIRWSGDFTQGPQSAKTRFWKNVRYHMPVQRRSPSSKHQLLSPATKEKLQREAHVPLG

[4] = target: monkey IL-36R (monkey); test: flow cytometry on cells, hybridoma supernatant
[5] = target: T2, human IL-36R (antigen of the OD450 binding screen of Table 1) (human) (UniProt Q9HB29); test: OD450 binding screen of hybridoma supernatant, antigen not named
T2 sequence (looked up): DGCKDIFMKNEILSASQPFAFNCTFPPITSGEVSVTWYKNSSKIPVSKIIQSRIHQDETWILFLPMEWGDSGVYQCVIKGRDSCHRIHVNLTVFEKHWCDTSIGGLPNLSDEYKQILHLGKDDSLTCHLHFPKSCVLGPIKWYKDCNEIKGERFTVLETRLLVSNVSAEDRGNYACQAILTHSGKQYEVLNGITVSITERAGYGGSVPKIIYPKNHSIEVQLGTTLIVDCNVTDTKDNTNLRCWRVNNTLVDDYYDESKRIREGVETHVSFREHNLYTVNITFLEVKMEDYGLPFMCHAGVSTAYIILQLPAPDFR

B1: 111(1)-E5 (antibody, part only; not given: light chain, V domains shown, part only)
VH: QVQLQQTGSVLVRPGTSVKLSCKASGYTFTSSWMHWAKQRPGQGLEWIGEIHPNSAKTNYNEKFKGKATLTVDTFSSTAYVDLSSLASEDSAVYYCARVDYGKPWFAYWGQGTLVTVSA
[1]
  IL-6 ratio in blockage of human IL36β functional activity (hybridoma supernatant/positive control): 0.07%
  IL-8 ratio in blockage of human IL36α functional activity (hybridoma supernatant/positive control): -4.02%
  IL-8 ratio in blockage of human IL36β functional activity (hybridoma supernatant/positive control): -4.62%
  IL-8 ratio in blockage of human IL36γ functional activity (hybridoma supernatant/positive control): -3.86%
[2]
  MFI ratio (hybridoma supernatant/positive control): 81.6%
[3]
  MFI ratio (hybridoma supernatant/negative control): 118%
[4]
  MFI ratio (hybridoma supernatant/positive control): 105%
[5]
  Binding activity OD450 value: 2.16 OD450
